Assay results as given in patent CN111995674A (INST MILITARY MEDICINE ACADEMY MILITARY SCIENCES PLA, dated 2020).

Molecular target: T1, 肉毒毒素AHC片段 (UniProt P0DPI1 873-1296)
T1 construct: domain: AHC片段
Test: ELISA, coated antigen, anti-human IgG-HRP

T1 sequence (P0DPI1 873-1296 limits assumed): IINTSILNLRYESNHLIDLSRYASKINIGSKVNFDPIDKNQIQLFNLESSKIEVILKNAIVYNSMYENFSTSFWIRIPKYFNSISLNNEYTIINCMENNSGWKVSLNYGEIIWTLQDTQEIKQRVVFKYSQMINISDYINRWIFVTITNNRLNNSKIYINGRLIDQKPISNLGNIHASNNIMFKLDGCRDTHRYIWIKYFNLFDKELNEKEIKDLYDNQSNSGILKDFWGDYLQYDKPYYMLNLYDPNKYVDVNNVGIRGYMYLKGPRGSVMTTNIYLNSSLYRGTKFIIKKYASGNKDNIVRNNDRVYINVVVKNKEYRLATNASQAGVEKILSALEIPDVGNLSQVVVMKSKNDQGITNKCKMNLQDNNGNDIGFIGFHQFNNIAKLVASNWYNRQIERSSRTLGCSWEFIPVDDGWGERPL

B1: 人鼠嵌合全抗体mhC3 (antibody, V domains shown)
VH: EVQLVESGGDLVKPGGSLKLSCAASGFTFNTYAMNWVRQTPGKGLEWVARIRSKSNNYATYYADSVKDRFTISRDDSQSMLYLQMNNLKTEDTAMYYCVTPYYGNYADWFTYWGQGTSVTVSS
VL: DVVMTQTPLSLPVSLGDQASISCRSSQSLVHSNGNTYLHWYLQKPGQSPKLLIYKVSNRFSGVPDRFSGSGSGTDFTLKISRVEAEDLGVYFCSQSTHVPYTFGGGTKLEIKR
notes: also called mhC3抗体; C3 (图5、图6)
binding result: no binding (tested: 300μg/mL)
